Experiments:
[1] = target: T1, Recombinant human NRP1 with His Tag (Sino Biological Inc.; Cat #1001-H08H) (human, UniProt O14786-2 22-644); test: BLI (Octet Red96), biotinylated VEGF165 on streptavidin sensor, NRP1 in solution; value 5 of 6 in the cell
T1 construct: also called Neuropilin 1
T1 sequence (looked up): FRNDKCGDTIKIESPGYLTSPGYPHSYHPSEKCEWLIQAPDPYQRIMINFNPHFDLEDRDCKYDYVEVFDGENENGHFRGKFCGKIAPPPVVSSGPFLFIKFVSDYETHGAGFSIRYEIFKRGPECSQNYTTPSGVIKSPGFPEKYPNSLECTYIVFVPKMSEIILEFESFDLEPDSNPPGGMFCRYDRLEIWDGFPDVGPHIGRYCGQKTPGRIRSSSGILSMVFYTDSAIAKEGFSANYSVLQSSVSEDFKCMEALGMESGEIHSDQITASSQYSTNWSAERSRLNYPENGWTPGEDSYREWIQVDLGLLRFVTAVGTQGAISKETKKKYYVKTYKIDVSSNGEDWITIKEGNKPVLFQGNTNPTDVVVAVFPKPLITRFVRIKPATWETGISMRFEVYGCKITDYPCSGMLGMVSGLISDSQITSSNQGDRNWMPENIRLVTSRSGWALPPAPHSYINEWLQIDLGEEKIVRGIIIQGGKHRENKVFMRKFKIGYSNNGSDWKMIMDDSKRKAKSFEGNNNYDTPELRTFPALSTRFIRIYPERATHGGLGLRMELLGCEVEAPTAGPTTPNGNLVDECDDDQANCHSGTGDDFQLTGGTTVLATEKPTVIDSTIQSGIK

[2] = target: T1, Recombinant human NRP1 with His Tag …; test: BLI (Octet Red96), biotinylated VEGF165 on streptavidin sensor, NRP1 in solution
[3] = target: T1, Recombinant human NRP1 with His Tag …; test: BLI (Octet Red96), biotinylated VEGF165 on streptavidin sensor, NRP1 in solution; value 2 of 6 in the cell
[4] = target: T1, Recombinant human NRP1 with His Tag …; test: BLI (Octet Red96), biotinylated VEGF165 on streptavidin sensor, NRP1 in solution; value 1 of 6 in the cell
[5] = target: T1, Recombinant human NRP1 with His Tag …; test: BLI (Octet Red96), biotinylated VEGF165 on streptavidin sensor, NRP1 in solution; value 3 of 6 in the cell
[6] = target: T1, Recombinant human NRP1 with His Tag …; test: BLI (Octet Red96), biotinylated VEGF165 on streptavidin sensor, NRP1 in solution; value 4 of 6 in the cell
[7] = target: T1, Recombinant human NRP1 with His Tag …; test: BLI (Octet Red96), biotinylated VEGF165 on streptavidin sensor, NRP1 in solution; value 6 of 6 in the cell

B1: Biotinylated recombinant Human VEGF165 (ACRO Biosystems; Cat # VE5-H8210) (ligand, UniProt P15692-4 27-191, looked up)
chain: APMAEGGGQNHHEVVKFMDVYQRSYCHPIETLVDIFQEYPDEIEYIFKPSCVPLMRCGGCCNDEGLECVPTEESNITMQIMRIKPHQGQHIGEMSFLQHNKCECRPKKDRARQENPCGPCSERRKHLFVQDPQTCKCSCKNTDSRCKARQLELNERTCRCDKPRR
notes: also called biotinylated VEGF
With B1 the Kd [1] was 18 nM, the Kd [2] was 40 to 98 nM and the Kd [3] was 26 nM. The Kd [4] was 43 nM, the Kd [5] was 75 nM and the Kd [6] was 98 nM. The Kd [7] was 26 nM.

From US20200206312A1 (EISAI, published 2020)
